Results published in US20250339531A1 (FRED HUTCHINSON CANCER CENTER, published 2025).

T1: Signal transducer and activator of transcription 1-alpha/beta (Homo sapiens, UniProt P42224 2-750)
T1 construct: also called STAT1
T1 sequence (looked up): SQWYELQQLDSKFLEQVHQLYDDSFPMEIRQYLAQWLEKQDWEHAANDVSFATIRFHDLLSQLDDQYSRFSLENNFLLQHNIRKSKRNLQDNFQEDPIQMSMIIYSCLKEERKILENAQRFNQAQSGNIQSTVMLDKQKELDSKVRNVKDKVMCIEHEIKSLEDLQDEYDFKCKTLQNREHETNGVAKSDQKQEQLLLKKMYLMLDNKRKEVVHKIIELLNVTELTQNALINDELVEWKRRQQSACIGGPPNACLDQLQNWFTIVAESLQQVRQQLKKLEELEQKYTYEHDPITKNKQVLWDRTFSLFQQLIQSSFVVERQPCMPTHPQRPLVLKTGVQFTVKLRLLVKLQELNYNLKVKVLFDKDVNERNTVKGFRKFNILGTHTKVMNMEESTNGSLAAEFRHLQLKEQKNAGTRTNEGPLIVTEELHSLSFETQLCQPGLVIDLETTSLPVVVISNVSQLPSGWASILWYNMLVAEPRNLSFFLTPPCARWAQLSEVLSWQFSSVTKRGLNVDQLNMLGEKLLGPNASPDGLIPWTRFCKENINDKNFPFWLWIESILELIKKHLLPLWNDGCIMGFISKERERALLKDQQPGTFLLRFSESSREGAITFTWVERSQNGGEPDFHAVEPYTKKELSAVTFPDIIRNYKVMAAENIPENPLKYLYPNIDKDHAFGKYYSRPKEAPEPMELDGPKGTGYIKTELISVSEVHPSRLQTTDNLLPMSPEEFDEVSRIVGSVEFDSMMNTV


Assays:
[1] = molecular target: T1, Signal transducer and activator of …; test: anti-FLAG co-IP and western of truncation series in MB135 cells (FIG. 27A)
[2] = molecular target: T1, Signal transducer and activator of …; test: anti-FLAG co-IP LC-MS, exp 4, +Dox +IFNG
[3] = molecular target: T2, Immunoglobulin kappa variable 2-40 (Homo sapiens); test: anti-FLAG co-IP LC-MS, exp 4, +Dox +IFNG
T2 construct: also called IGKV2-40
T2 sequence (A0A087WW87 20-121): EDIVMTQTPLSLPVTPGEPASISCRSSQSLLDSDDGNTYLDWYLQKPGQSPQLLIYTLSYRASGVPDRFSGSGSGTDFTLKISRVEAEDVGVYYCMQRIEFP

[4] = molecular target: T3, Proteasome subunit alpha type (Homo sapiens); test: anti-FLAG co-IP LC-MS, exp 4, +Dox +IFNG
T3 construct: also called PSMA6

[5] = molecular target: T4, Uncharacterized protein (Fragment) (Homo sapiens); test: anti-FLAG co-IP LC-MS, exp 4, +Dox +IFNG
T4 construct: also called NA (Homology to TAP2)

Binder | binding result [1] | PSMs [2] [PSMs] | PSMs [3] [PSMs] | PSMs [4] [PSMs] | PSMs [5] [PSMs]
iDUX4aa154-271 (other, not shown: N-terminal 3×FLAG tag and NLS) GRAPAQAGGLCSAAPGGGHPAPSWVAFAHTGAWGTGLPAPHVPCAPGALPQGAFVSQAARAAPALQPSQAAPAEGISQPAPARGDFAYAAPAPPDGALSHPQAPRWPPHPGKSREDRD | no binding | – | – | – | –
i3XFLAG-NLS-CTDaa154-419mL1dL2 (other, also called longCTDmL1dL2; longCTDmL1DL2) MDYKDHDGDYKDHDIDYKDDDDKPPKRMRREPKKKRKVGRAPAQAGGLCSAAPGGGHPAPSWVAFAHTGAWGTGLPAPHVPCAPGALPQGAFVSQAARAAPALQPSQAAPAEGISQPAPARGDFAYAAPAPPDGALSHPQAPRWPPHPGKSREDRDPQRDGLPGPCAVAQPGPAQAGPQGQGVLAPPTSQGSPWWGWGRGPQVAGAAWEPQAGAAPPPQPAPPDASASARQGQMQGIPAPSQALQEPAPWSALPCGLLAAEAAASPEFLQQAQPLLETEAPGELEASEEAASLEAPLSEEEYRA | – | 18 | 1 | 4 | 2
